The values that follow come from PMC4070737.

The target in this assay is T1, full-length human EB1 (human), Q15691.
T1 chain: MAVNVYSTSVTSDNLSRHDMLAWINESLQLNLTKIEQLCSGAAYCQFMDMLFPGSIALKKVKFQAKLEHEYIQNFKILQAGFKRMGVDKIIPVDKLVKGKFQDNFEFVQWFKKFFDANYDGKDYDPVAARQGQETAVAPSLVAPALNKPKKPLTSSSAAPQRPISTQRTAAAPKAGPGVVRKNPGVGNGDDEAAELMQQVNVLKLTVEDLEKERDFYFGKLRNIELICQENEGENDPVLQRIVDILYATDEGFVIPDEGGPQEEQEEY
The assay can be described thus: AUC. As to conditions: remark: other sources report otherwise.

B1: full-length human EB1, Q15691 1-268 (natural protein)
chain: T1 chain
By Kd is commonly meant the equilibrium constant for the complex coming apart. The term stoichiometry N denotes the number of molecules, sites or subunits per partner or assembly. On to B1, for which the Kd worked out at 88.5 nM and the stoichiometry N was found to be 2.
